One test has as its target PTHR-delNt (human) (UniProt Q03431). In words: competition binding, COS-7 membranes, 125I-[Aib1,3,M]PTH(1-15) tracer.
In test [1] the target is T1, wild-type human PTHR (human, UniProt Q03431 27-593).
T1 sequence (looked up): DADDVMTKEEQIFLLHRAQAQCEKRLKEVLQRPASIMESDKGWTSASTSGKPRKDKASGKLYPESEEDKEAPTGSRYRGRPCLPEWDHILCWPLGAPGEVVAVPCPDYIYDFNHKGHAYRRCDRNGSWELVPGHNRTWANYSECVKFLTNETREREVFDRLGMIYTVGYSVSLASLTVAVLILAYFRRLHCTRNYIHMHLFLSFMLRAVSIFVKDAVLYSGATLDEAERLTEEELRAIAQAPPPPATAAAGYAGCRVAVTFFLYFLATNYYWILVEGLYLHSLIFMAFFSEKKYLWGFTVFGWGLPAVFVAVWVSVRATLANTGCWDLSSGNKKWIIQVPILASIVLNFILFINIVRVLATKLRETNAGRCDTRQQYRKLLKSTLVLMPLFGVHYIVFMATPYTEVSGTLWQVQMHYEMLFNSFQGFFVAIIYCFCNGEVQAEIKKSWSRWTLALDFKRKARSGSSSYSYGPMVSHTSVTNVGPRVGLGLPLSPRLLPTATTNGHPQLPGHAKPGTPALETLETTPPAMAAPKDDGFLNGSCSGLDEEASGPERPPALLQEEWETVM
In words: competition binding, HKRK-B7 cells, 125I-PTH(1-34) tracer.

Test [2] deals with T1, wild-type human PTHR. The description is as above. In short, it runs like this: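 Intact HKRK-B7 cells stably expressing hPTHR incubated 4 h at 15° C with ¹²⁵I-PTH(1-34) tracer and unlabeled peptide (3×10⁻⁹ to 1×10⁻⁵ M). Nonspecific binding defined with 1×10⁻⁶ M PTH(1-31)NH₂. Bound activity counted after lysis and expressed as % specific binding without competitor; values in nM, mean ± s.e.m.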

In test [3] the target is T2, rat PTHR endogenously expressed in ROS 17/2.8 cells (rat, UniProt P25961 27-591).
T2 construct: whole, on cells; also called endogenous PTHR; PTHR in ROS 17/2.8 cells
T2 sequence (looked up): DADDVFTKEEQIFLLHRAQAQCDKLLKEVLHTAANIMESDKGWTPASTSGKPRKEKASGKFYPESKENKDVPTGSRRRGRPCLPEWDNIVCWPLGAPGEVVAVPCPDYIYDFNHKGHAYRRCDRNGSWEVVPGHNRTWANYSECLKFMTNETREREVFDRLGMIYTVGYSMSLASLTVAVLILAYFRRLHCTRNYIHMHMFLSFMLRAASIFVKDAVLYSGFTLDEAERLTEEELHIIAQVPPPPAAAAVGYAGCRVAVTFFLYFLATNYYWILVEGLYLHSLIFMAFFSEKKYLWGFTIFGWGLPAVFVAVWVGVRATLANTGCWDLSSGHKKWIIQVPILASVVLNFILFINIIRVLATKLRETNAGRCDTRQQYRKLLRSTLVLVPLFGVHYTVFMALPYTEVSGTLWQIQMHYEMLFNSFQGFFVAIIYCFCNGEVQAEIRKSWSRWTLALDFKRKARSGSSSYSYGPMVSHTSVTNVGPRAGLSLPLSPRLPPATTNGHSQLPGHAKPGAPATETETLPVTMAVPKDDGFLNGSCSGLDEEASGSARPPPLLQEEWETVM
In words: competition binding, ROS 17/2.8 cells, 125I-PTH(1-34) tracer. On the procedure:
Receptor binding—Binding to the wild-type human PTHR in intact HKRK-B7 cells and ROS 17/2.8 cells was assessed using ¹²⁵I-PTH(1-34) as a tracer radioligand, as described (Shimizu, M., (2001) Endocrinology 142:3068-3074). In brief, the cells in 24-well plates (about 500,000 cells per well) were incubated in binding buffer containing radioligand (about 100,000 cpm per well) with or without unlabeled peptide ligand (3×10⁻⁹ to 1×10⁻⁵ M) for four hours at 15° C. The binding mixture was then removed by aspiration, the cells were rinsed three times with binding buffer, lysed in 1 M NaOH, and the entire lysate was counted for gamma-irradiation in a gamma counter. Binding to PTHR-delNt in COS-7 cell membranes was assessed in 96-well, vacuum filtration plates (Multiscreen-Durapore HV, […], Millipore Corp., Millford, Mass.) using ¹²⁵I-[Aib^{1,3},M]PTH(1-15)NH₂ as a tracer radioligand, as described (Dean, T., (2006) Mol Endocrinol 20:931-942). In brief, cell membranes (20 μg/well) were incubated in membrane binding buffer containing radioligand (30,000 cpm/well) with or without unlabeled peptide ligand (3×10⁻⁹ to 1×10⁻⁵ M) for 90 minutes at 21° C. The plates were then subject to rapid vacuum filtration, the filters were washed once with buffer, detached from the plate and counted for gamma-irradiation in a gamma counter. Non-specific binding was defined as the binding observed in the presence of 1×10⁻⁶ M PTH(1-31)NH₂ for HKRK-B7 and ROS 17/2.8 cells, and 1×10⁻⁶ M [Aib^{1,3},M]PTH(1-15)NH₂ for PTHR-delNt. Specifically bound radioactivity was calculated as a percentage of the radioactivity specifically bound in the absence of competing ligand.
Effects on cAMP and IP signaling—Selected analogs of [Ala¹,Arg¹⁹]hPTH(1-31)NH₂ with substitutions that markedly impaired binding to HKRK-B7 cells were assessed for their capacity to bind to the PTHR in ROS 17/2.8 cells and to stimulate cAMP-signaling responses in these cells. These bone-derived cells endogenously express the rat PTHR at a more physiological level than is found in HKRK-B7 cells (approximately 80,000 PTHRs per cell vs. 950,000 PTHRs per cell) and, have generally been found (data not shown) to yield closer correlations between PTH analog binding affinity and cAMP-signaling potency than do HKRK-B7 cells, presumably due to their lower PTHR expression level.

Test [4] deals with T1, wild-type human PTHR. In words: competition binding, HKRK-B7 cells, 125I-PTH(1-34) tracer. This is another data set of the same source.
The target of test [5] is T2, rat PTHR endogenously expressed in ROS …. In words: cell-based or functional assay.

Where two headings read alike, the source gives them in different places. Where no end group is shown, it is not given here. [ ]: non-standard residue; d: D form. Apa = (S)-2-amino-4[(2-amino)pyrimidinyl]methylalanine; Phe(4-guanidino) = N=C(N)Nc1ccc(C[C@H](N)C(=O)O)cc1; Cha = N[C@@H](CC1CCCCC1)C(=O)O; Orn = NCCC[C@H](N)C(=O)O

B1: PTH(1-31)NH2 Arg^20→Gph (peptide)
peptide: SVSEIQLMHNLGKHLNSME[Phe(4-guanidino)]VEWLRKKLQDV-NH2
modifications: N-terminus assumed
SMILES: CC[C@H](C)[C@H](NC(=O)[C@H](CCC(=O)O)NC(=O)[C@H](CO)NC(=O)[C@@H](NC(=O)[C@@H](N)CO)C(C)C)C(=O)N[C@@H](CCC(N)=O)C(=O)N[C@@H](CC(C)C)C(=O)N[C@@H](CCSC)C(=O)N[C@@H](Cc1c[nH]cn1)C(=O)N[C@@H](CC(N)=O)C(=O)N[C@@H](CC(C)C)C(=O)NCC(=O)N[C@@H](CCCCN)C(=O)N[C@@H](Cc1c[nH]cn1)C(=O)N[C@@H](CC(C)C)C(=O)N[C@@H](CC(N)=O)C(=O)N[C@@H](CO)C(=O)N[C@@H](CCSC)C(=O)N[C@@H](CCC(=O)O)C(=O)N[C@@H](Cc1ccc(NC(=N)N)cc1)C(=O)N[C@H](C(=O)N[C@@H](CCC(=O)O)C(=O)N[C@@H](Cc1c[nH]c2ccccc12)C(=O)N[C@@H](CC(C)C)C(=O)N[C@@H](CCCNC(=N)N)C(=O)N[C@@H](CCCCN)C(=O)N[C@@H](CCCCN)C(=O)N[C@@H](CC(C)C)C(=O)N[C@@H](CCC(N)=O)C(=O)N[C@@H](CC(=O)O)C(=O)N[C@H](C(N)=O)C(C)C)C(C)C
What is called IC50 is the concentration at which inhibition is half-maximal. A higher IC50 goes with lower potency. With B1, in the test with PTHR-delNt (human), the concentration for half-maximal inhibition (IC50) was determined as 2050 nM and the fold difference of IC50 from PTH(1-31)NH2 was less than 4 fold. The IC50 with wild-type human PTHR [1] was greater than 10000 nM.

B2: PTH(1-31)NH2 Arg^20→Orn (peptide)
peptide: SVSEIQLMHNLGKHLNSME[Orn]VEWLRKKLQDV-NH2
modifications: N-terminus assumed
SMILES: CC[C@H](C)[C@H](NC(=O)[C@H](CCC(=O)O)NC(=O)[C@H](CO)NC(=O)[C@@H](NC(=O)[C@@H](N)CO)C(C)C)C(=O)N[C@@H](CCC(N)=O)C(=O)N[C@@H](CC(C)C)C(=O)N[C@@H](CCSC)C(=O)N[C@@H](Cc1c[nH]cn1)C(=O)N[C@@H](CC(N)=O)C(=O)N[C@@H](CC(C)C)C(=O)NCC(=O)N[C@@H](CCCCN)C(=O)N[C@@H](Cc1c[nH]cn1)C(=O)N[C@@H](CC(C)C)C(=O)N[C@@H](CC(N)=O)C(=O)N[C@@H](CO)C(=O)N[C@@H](CCSC)C(=O)N[C@@H](CCC(=O)O)C(=O)N[C@@H](CCCN)C(=O)N[C@H](C(=O)N[C@@H](CCC(=O)O)C(=O)N[C@@H](Cc1c[nH]c2ccccc12)C(=O)N[C@@H](CC(C)C)C(=O)N[C@@H](CCCNC(=N)N)C(=O)N[C@@H](CCCCN)C(=O)N[C@@H](CCCCN)C(=O)N[C@@H](CC(C)C)C(=O)N[C@@H](CCC(N)=O)C(=O)N[C@@H](CC(=O)O)C(=O)N[C@H](C(N)=O)C(C)C)C(C)C
For B2, in the test with PTHR-delNt (human), the IC50 was determined as 5530 nM and the fold difference of IC50 from PTH(1-31)NH2 is less than 4 fold. In the test with wild-type human PTHR [1], this molecule showed an IC50 greater than 10000 nM.

B3: [Ala^1,Arg^19]hPTH(1-31)NH2 Trp^23→Cha (peptide)
peptide: AVSEIQLMHNLGKHLNSMRRVE[Cha]LRKKLQDV-NH2
modifications: N-terminus assumed
SMILES: CC[C@H](C)[C@H](NC(=O)[C@H](CCC(=O)O)NC(=O)[C@H](CO)NC(=O)[C@@H](NC(=O)[C@H](C)N)C(C)C)C(=O)N[C@@H](CCC(N)=O)C(=O)N[C@@H](CC(C)C)C(=O)N[C@@H](CCSC)C(=O)N[C@@H](Cc1c[nH]cn1)C(=O)N[C@@H](CC(N)=O)C(=O)N[C@@H](CC(C)C)C(=O)NCC(=O)N[C@@H](CCCCN)C(=O)N[C@@H](Cc1c[nH]cn1)C(=O)N[C@@H](CC(C)C)C(=O)N[C@@H](CC(N)=O)C(=O)N[C@@H](CO)C(=O)N[C@@H](CCSC)C(=O)N[C@@H](CCCNC(=N)N)C(=O)N[C@@H](CCCNC(=N)N)C(=O)N[C@H](C(=O)N[C@@H](CCC(=O)O)C(=O)N[C@@H](CC1CCCCC1)C(=O)N[C@@H](CC(C)C)C(=O)N[C@@H](CCCNC(=N)N)C(=O)N[C@@H](CCCCN)C(=O)N[C@@H](CCCCN)C(=O)N[C@@H](CC(C)C)C(=O)N[C@@H](CCC(N)=O)C(=O)N[C@@H](CC(=O)O)C(=O)N[C@H](C(N)=O)C(C)C)C(C)C
As for B3, in the test with PTHR-delNt (human), the IC50 amounted to 867 nM and the fold change in binding affinity vs [Ala^1,Arg^19]PTH(1-31)NH2 is less than 3 fold. This molecule also displayed an IC50 with wild-type human PTHR [2] of 546 nM. The concentration for half-maximal inhibition (IC50) in test [3] came out at 19 nM. In the test with wild-type human PTHR [4], the “fold reduction in binding affinity vs [Ala^1,Arg^19]PTH(1-31)NH2” value was determined as 14 fold and the “fold reduction in binding vs [Ala^1,Arg^19]PTH(1-31)NH2” value was roughly 12 fold. Further, in test [5], the “cAMP EC50, ROS 17/2.8 cells” value is 0.82 nM.

B4: [Ala^1,Arg^19]hPTH(1-31)NH2 Leu^24→Cha (peptide)
peptide: AVSEIQLMHNLGKHLNSMRRVEW[Cha]RKKLQDV-NH2
modifications: N-terminus assumed
SMILES: CC[C@H](C)[C@H](NC(=O)[C@H](CCC(=O)O)NC(=O)[C@H](CO)NC(=O)[C@@H](NC(=O)[C@H](C)N)C(C)C)C(=O)N[C@@H](CCC(N)=O)C(=O)N[C@@H](CC(C)C)C(=O)N[C@@H](CCSC)C(=O)N[C@@H](Cc1c[nH]cn1)C(=O)N[C@@H](CC(N)=O)C(=O)N[C@@H](CC(C)C)C(=O)NCC(=O)N[C@@H](CCCCN)C(=O)N[C@@H](Cc1c[nH]cn1)C(=O)N[C@@H](CC(C)C)C(=O)N[C@@H](CC(N)=O)C(=O)N[C@@H](CO)C(=O)N[C@@H](CCSC)C(=O)N[C@@H](CCCNC(=N)N)C(=O)N[C@@H](CCCNC(=N)N)C(=O)N[C@H](C(=O)N[C@@H](CCC(=O)O)C(=O)N[C@@H](Cc1c[nH]c2ccccc12)C(=O)N[C@@H](CC1CCCCC1)C(=O)N[C@@H](CCCNC(=N)N)C(=O)N[C@@H](CCCCN)C(=O)N[C@@H](CCCCN)C(=O)N[C@@H](CC(C)C)C(=O)N[C@@H](CCC(N)=O)C(=O)N[C@@H](CC(=O)O)C(=O)N[C@H](C(N)=O)C(C)C)C(C)C
As to B4, the IC50 amounted to 283 nM in the test with PTHR-delNt (human), 436 nM in the test with wild-type human PTHR [2] and 7.3 nM in test [3]. The fold change in binding affinity vs [Ala^1,Arg^19]PTH(1-31)NH2 in the test with PTHR-delNt (human) was less than 3 fold. The “fold reduction in binding affinity vs [Ala^1,Arg^19]PTH(1-31)NH2” value in the test with wild-type human PTHR [4] was 11 fold. For the same molecule, the “fold reduction in binding vs [Ala^1,Arg^19]PTH(1-31)NH2” value with wild-type human PTHR [4] is roughly 12 fold. For the same molecule, the “cAMP EC50, ROS 17/2.8 cells” value in test [5] is 0.83 nM.

For SVSEIQLMHNLGKHLNSME[Apa]VEWLRKKLQDV-NH2 [PTH(1-31)NH2 Arg^20→Apa], in the test with PTHR-delNt (human), the IC50 came to 5740 nM and the fold difference of IC50 from PTH(1-31)NH2 was less than 4 fold. For the same molecule, the half-maximal inhibitory concentration (IC50) with wild-type human PTHR [1] was greater than 10000 nM.
